T1: NHERF3_4, Q5T2W1
T1 sequence (Q5T2W1 373-468, limits assumed, looked up): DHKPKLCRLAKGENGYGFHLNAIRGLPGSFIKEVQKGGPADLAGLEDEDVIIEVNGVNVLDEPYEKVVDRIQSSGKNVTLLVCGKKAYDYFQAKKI

T2: MPDZ_10, O75970
T2 sequence (O75970 1624-1722, limits assumed, looked up): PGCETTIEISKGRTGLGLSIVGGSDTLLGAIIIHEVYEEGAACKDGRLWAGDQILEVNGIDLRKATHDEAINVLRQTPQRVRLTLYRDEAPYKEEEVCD

T3: APBA1_2, Q02410
T3 sequence (Q02410 742-832, limits assumed, looked up): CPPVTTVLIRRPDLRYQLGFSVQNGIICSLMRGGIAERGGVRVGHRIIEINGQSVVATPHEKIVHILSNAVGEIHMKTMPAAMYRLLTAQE

T4: SIPA1L2, Q9P2F8
T4 sequence (Q9P2F8 945-1036, limits assumed, looked up): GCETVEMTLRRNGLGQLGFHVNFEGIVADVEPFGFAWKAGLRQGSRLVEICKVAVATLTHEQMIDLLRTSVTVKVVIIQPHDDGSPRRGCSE

T5: PDZD7_3, Q9H5P4
T5 sequence (Q9H5P4 857-944, limits assumed, looked up): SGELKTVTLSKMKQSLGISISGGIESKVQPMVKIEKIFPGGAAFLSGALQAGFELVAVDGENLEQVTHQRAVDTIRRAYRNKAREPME

T6: PTPN13_1, Q12923
T6 sequence (Q12923 1088-1188, limits assumed, looked up): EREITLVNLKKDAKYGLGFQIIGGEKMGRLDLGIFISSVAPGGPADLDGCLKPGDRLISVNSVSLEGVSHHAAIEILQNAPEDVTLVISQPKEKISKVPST

T7: SYNJ2BP, P57105
T7 sequence (P57105 8-110, limits assumed, looked up): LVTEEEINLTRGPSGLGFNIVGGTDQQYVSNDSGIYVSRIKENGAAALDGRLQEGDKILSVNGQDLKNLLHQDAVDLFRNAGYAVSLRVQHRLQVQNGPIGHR

T8: ARHGAP21, Q5T5U3
T8 sequence (Q5T5U3 45-169, limits assumed, looked up): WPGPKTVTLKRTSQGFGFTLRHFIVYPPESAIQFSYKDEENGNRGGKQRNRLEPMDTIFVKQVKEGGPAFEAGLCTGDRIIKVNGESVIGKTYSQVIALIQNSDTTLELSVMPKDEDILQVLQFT

T9: FRMPD1, Q5SYB0
T9 sequence (Q5SYB0 52-145, limits assumed, looked up): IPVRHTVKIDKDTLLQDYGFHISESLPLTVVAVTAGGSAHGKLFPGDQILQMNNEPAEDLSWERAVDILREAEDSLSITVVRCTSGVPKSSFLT

T10: APBA2_2, Q99767
T10 sequence (Q99767 654-744, limits assumed, looked up): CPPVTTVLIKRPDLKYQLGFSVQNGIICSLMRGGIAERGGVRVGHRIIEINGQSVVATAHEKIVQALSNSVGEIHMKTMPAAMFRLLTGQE

T11: HTRA4, P83105
T11 sequence (P83105 378-476, limits assumed, looked up): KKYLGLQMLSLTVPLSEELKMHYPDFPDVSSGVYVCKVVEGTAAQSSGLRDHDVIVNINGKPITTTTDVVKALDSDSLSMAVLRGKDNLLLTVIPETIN

T12: LIN7B, Q9HAP6
T12 sequence (Q9HAP6 88-185, limits assumed, looked up): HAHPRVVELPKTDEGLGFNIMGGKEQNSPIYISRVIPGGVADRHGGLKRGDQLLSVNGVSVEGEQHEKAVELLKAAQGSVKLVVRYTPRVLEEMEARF

T13: APBA3_1, O96018
T13 sequence (O96018 389-490, limits assumed, looked up): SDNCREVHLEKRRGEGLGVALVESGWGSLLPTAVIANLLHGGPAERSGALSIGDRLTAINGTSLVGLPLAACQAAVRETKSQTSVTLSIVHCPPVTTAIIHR


What was measured:
Assay in all cases: holdup assay
Set-up in all cases: key: below the threshold = too weak to quantify, mostly under pKd 3.1 to 4
Conditions in all cases: plain residues with an end cap or a label only (N-terminal biotin on a linker: ado-ado)
[1] = biological target: T1, NHERF3_4, Q5T2W1
[2] = biological target: T2, MPDZ_10, O75970
[3] = biological target: SNX27, Q96L92
[4] = biological target: DLG1_1, Q12959
[5] = biological target: T3, APBA1_2, Q02410
[6] = biological target: T4, SIPA1L2, Q9P2F8
[7] = biological target: T5, PDZD7_3, Q9H5P4
[8] = biological target: MAST2, Q6P0Q8
[9] = biological target: MAGI2_4, Q86UL8
[10] = biological target: MAGI3_2, Q5TCQ9
[11] = biological target: T6, PTPN13_1, Q12923
[12] = biological target: T7, SYNJ2BP, P57105
[13] = biological target: T8, ARHGAP21, Q5T5U3
[14] = biological target: Inadl_2, Q8NI35
[15] = biological target: GIPC2, Q8TF65
[16] = biological target: GRIP2_7, Q9C0E4
[17] = biological target: PDLIM1, O00151
[18] = biological target: TJP2_1, Q9UDY2
[19] = biological target: T9, FRMPD1, Q5SYB0
[20] = biological target: T10, APBA2_2, Q99767
[21] = biological target: T11, HTRA4, P83105
[22] = biological target: T12, LIN7B, Q9HAP6
[23] = biological target: GRASP, Q7Z6J2
[24] = biological target: GRIP2_3, Q9C0E4
[25] = biological target: T13, APBA3_1, O96018

Chain of GRIP2_7, Q9C0E4 (Q9C0E4 934-1023): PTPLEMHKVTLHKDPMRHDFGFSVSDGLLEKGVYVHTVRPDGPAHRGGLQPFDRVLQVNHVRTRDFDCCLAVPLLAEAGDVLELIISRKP
Chain of TJP2_1, Q9UDY2 (Q9UDY2 24-128): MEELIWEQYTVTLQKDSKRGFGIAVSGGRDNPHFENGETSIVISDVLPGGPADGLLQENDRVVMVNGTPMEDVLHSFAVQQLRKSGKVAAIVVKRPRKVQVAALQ
Chain of PDLIM1, O00151 (O00151 1-87): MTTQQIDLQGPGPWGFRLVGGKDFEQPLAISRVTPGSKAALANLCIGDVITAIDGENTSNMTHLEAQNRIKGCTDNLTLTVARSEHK
Chain of MAGI3_2, Q5TCQ9 (Q5TCQ9 398-503): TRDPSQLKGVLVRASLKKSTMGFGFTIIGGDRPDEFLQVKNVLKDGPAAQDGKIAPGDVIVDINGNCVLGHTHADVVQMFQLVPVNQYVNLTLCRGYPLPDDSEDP
Chain of GRASP, Q7Z6J2 (Q7Z6J2 96-193): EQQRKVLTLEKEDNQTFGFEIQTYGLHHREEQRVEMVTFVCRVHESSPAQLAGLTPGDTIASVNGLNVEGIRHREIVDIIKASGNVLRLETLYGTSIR
Chain of MAST2, Q6P0Q8 (Q6P0Q8 1099-1202): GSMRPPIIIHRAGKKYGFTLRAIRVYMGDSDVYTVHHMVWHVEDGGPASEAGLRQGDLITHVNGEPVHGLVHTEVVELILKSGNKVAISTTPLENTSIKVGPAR
Chain of Inadl_2, Q8NI35 (Q8NI35 238-335): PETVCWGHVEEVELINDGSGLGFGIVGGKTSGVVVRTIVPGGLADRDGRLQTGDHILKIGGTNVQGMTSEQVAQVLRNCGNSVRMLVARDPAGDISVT
Chain of GIPC2, Q8TF65 (Q8TF65 112-203): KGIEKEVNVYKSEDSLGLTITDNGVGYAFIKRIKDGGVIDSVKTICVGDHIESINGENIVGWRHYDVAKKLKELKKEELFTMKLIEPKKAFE
Chain of GRIP2_3, Q9C0E4 (Q9C0E4 238-339): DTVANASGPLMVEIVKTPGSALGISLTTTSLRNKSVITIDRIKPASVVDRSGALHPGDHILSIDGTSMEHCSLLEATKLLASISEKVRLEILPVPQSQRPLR
Chain of MAGI2_4, Q86UL8 (Q86UL8 772-865): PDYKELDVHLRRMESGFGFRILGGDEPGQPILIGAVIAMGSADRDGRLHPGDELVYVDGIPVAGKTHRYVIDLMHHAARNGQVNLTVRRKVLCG

Row | pKd [1] | pKd [2] | pKd [3] | pKd [4] | pKd [5] | pKd [6] | pKd [7] | pKd [8] | pKd [9] | pKd [10] | pKd [11] | pKd [12] | pKd [13] | pKd [14] | pKd [15] | pKd [16] | pKd [17] | pKd [18] | pKd [19] | pKd [20] | Binder | further results
1 | 3.73 | below the threshold | below the threshold | below the threshold | below the threshold | below the threshold | below the threshold | below the threshold | below the threshold | below the threshold | below the threshold | below the threshold | below the threshold | below the threshold | 3.79 | below the threshold | below the threshold | below the threshold | below the threshold | below the threshold | GSQSQVETEA [FKBP4, Q02790] | pKd [21]: below the threshold; pKd [22]: 3.62; pKd [23]: 3.59; pKd [24]: below the threshold; pKd [25]: below the threshold
2 | below the threshold | 3.95 | 4.38 | 5.05 | 3.82 | 3.52 | 5.64 | 4.92 | 4.51 | 5.31 | below the threshold | 4.14 | 4.09 | 3.51 | below the threshold | 3.52 | 3.49 | 3.87 | below the threshold | below the threshold | ATKDKKITTV [EXOC4, Q96A65] | pKd [21]: 3.49; pKd [22]: below the threshold; pKd [23]: 3.95; pKd [24]: 3.51; pKd [25]: below the threshold
3 | 4.27 | below the threshold | 4.91 | 4.39 | 4.15 | below the threshold | 4.36 | 5.35 | 4.42 | 5.01 | below the threshold | 5.21 | below the threshold | below the threshold | below the threshold | below the threshold | below the threshold | 3.6 | below the threshold | below the threshold | FHSIKQSTAV [CRHR1, P34998] | pKd [21]: below the threshold; pKd [22]: below the threshold; pKd [23]: 4.72; pKd [24]: below the threshold; pKd [25]: below the threshold
